In PMC4944284:

B1: unnamed (parent)
chain: MPGFYEIVIKVPSDLDGHLPGISDSFVNWVAEKEWELPPDSDMDLNLIEQAPLTVAEKLQRDFLTEWRRVSKAPEALFFVQFEKGESYFHMHVLVETTGVKSMVLGRFLSQIREKLIQRIYRGIEPTLPNWFAVTKTRNGAGGGNKVVDESYIPNYLLPKTQPELQWAWTNMEQYLSACLNLTERKRLVAQHLTHVSQTQEQNKENQNPNSDAPVIRSKTSARYMELVGWLVDKGITSEKQWIQEDQASYISFNAASNSRSQIKAALDNAGKIMSLTKTAPDYLVGQQPVEDISSNRIYKILELNGYDPQYAASVFLGWATKKFGKRNTIWLFGPATTGKTNIAEAIAHTVPFYGCVNWTNENFPFNDCVDKMVIWWEEGKMTAKVVESAKAILGGSKVRVDQKCKSSAQIDPTPVIVTSNTNMCAVIDGNSTTFEHQQPLQDRMFKFELTRRLDHDFGKVTKQEVKDFFRWAKDHVVEVEHEFYVKKGGAKKRPAPSDADISEPKRVRESVAQPSTSDAEASINYADRLARGHSL

Variants of: B1
Test: sedimentation velocity (analytical ultracentrifugation), self-association
Settings: with partner chain of the complex shown; parent: 1; read off a plot

Variant	ratio to parent
chain 1 Y224F	0.69
chain 1 Y224D	0.1
